Assay results as given in paper PMC7772510.

What was measured:
[1] = target: complement fragment iC3b (UniProt P01024); assay: SPR
[2] = target: complement fragment iC3b (UniProt P01024); assay: ELISA

Binder | Kd [1] [nM] | Kd [2] [nM]
GST-αX I-domain (domain or fragment) RQEQDIVFLIDGSGSISSRNFATMMNFVRAVISQFQRPSTQFSLMQFSNKFQTHFTFEEFRRSSNPLSLLASVHQLQGFTYTATAIQNVVHRLFHASYGARRDAAKILIVITDGKKEGDSLDYKDVIPMADAAGIIRYAIGVGLAFQNRNSWKELNDIASKPSQEHIFKVEDFDALKDIQNQLKEKIFAIEG | 1060 | 1000
GST-αX I-domain D249M (domain or fragment) RQEQDIVFLIDGSGSISSRNFATMMNFVRAVISQFQRPSTQFSLMQFSNKFQTHFTFEEFRRSSNPLSLLASVHQLQGFTYTATAIQNVVHRLFHASYGARRMAAKILIVITDGKKEGDSLDYKDVIPMADAAGIIRYAIGVGLAFQNRNSWKELNDIASKPSQEHIFKVEDFDALKDIQNQLKEKIFAIEG | 490 | –
GST-αX I-domain K243S/E244H (domain or fragment) RQEQDIVFLIDGSGSISSRNFATMMNFVRAVISQFQRPSTQFSLMQFSNKFQTHFTFEEFRRSSNPLSLLASVHQLQGFTYTATAIQNVVHRLFHASYGARRDAAKILIVITDGKSHGDSLDYKDVIPMADAAGIIRYAIGVGLAFQNRNSWKELNDIASKPSQEHIFKVEDFDALKDIQNQLKEKIFAIEG | 560 | –
GST-αX I-domain K242A/K243A (domain or fragment) RQEQDIVFLIDGSGSISSRNFATMMNFVRAVISQFQRPSTQFSLMQFSNKFQTHFTFEEFRRSSNPLSLLASVHQLQGFTYTATAIQNVVHRLFHASYGARRDAAKILIVITDGAAEGDSLDYKDVIPMADAAGIIRYAIGVGLAFQNRNSWKELNDIASKPSQEHIFKVEDFDALKDIQNQLKEKIFAIEG | 2890 | –
